In paper PMC6996649, “Rational Engineered C-Acyltransferase Transforms Sterically Demanding Acyl Donors” (ACS Catalysis, 2019):

Assays:
Type in all cases: biochemical, Pseudomonas protegens
CC(=O)c1c(O)cc(O)cc1O = system: T1, CC(=O)c1c(O)cc(O)cc1O; experiment: purified protein; details: disproportionation to DAPG, 100 mM potassium phosphate pH 7.5, 35 °C
T1 construct: PhlABC multi-subunit acyltransferase from codon-harmonized construct, recombinant in E. coli, purified enzyme; with 2,4-diacetylphloroglucinol biosynthesis acyltransferase subunit PhlA; 2,4-diacetylphloroglucinol biosynthesis acyltransferase subunit PhlB

CCCC(=O)c1c(O)cc(O)cc1O = system: T2, CCCC(=O)c1c(O)cc(O)cc1O; experiment: purified protein; details: disproportionation to 3a (DBPG), 100 mM potassium phosphate pH 7.5, 35 °C
T2 construct: PhlABC multi-subunit acyltransferase from codon-harmonized construct, recombinant in E. coli, purified enzyme; with 2,4-diacetylphloroglucinol biosynthesis acyltransferase subunit PhlA; 2,4-diacetylphloroglucinol biosynthesis acyltransferase subunit PhlB

CCCC(=O)Oc1ccccc1 = system: T3, CCCC(=O)Oc1ccccc1; experiment: HPLC assay of resorcinol acylation; details: 10 mM resorcinol as acceptor, 100 mM imidazole, potassium phosphate pH 7.5, 35 °C
T3 construct: PhlABC multi-subunit acyltransferase from codon-harmonized construct, recombinant in E. coli, purified enzyme; with 2,4-diacetylphloroglucinol biosynthesis acyltransferase subunit PhlA; 2,4-diacetylphloroglucinol biosynthesis acyltransferase subunit PhlB
Source text: (§1) HPLC assay of resorcinol acylation on PpATaseCH

COCC(=O)Oc1ccccc1 = system: T4, COCC(=O)Oc1ccccc1; experiment: HPLC assay of resorcinol acylation; details: 10 mM resorcinol as acceptor, 100 mM imidazole, potassium phosphate pH 7.5, 35 °C
T4 construct: PhlABC multi-subunit acyltransferase from codon-harmonized construct, recombinant in E. coli, purified enzyme; with 2,4-diacetylphloroglucinol biosynthesis acyltransferase subunit PhlA; 2,4-diacetylphloroglucinol biosynthesis acyltransferase subunit PhlB
Source text: as §1

PpATaseCH (Pseudomonas protegens Pf-5; F148V)
Km (CC(=O)c1c(O)cc(O)cc1O): 240 ± 90 µM | Vmax (CC(=O)c1c(O)cc(O)cc1O): 820 µM/min | kcat (CC(=O)c1c(O)cc(O)cc1O): 7.2 ± 1.9 s⁻¹ | kcat/Km (CC(=O)c1c(O)cc(O)cc1O): 31000 ± 4000 M⁻¹ s⁻¹ | Km (CCCC(=O)c1c(O)cc(O)cc1O): 540 ± 70 µM | Vmax (CCCC(=O)c1c(O)cc(O)cc1O): 620 µM/min | kcat (CCCC(=O)c1c(O)cc(O)cc1O): 5.3 ± 0.6 s⁻¹ | kcat/Km (CCCC(=O)c1c(O)cc(O)cc1O): 9900 ± 800 M⁻¹ s⁻¹ | Km (CCCC(=O)Oc1ccccc1): 3200 ± 100 µM | Vmax (CCCC(=O)Oc1ccccc1): 40 µM/min | kcat (CCCC(=O)Oc1ccccc1): 0.012 ± 0.002 s⁻¹ | kcat/Km (CCCC(=O)Oc1ccccc1): 3.7 ± 0.6 M⁻¹ s⁻¹ | Km (COCC(=O)Oc1ccccc1): 5000 ± 1000 µM | Vmax (COCC(=O)Oc1ccccc1): 580 µM/min | kcat (COCC(=O)Oc1ccccc1): 0.188 ± 0.016 s⁻¹ | kcat/Km (COCC(=O)Oc1ccccc1): 38.7 ± 8.5 M⁻¹ s⁻¹
